Patent US8828940B2, “Method of treating an ischemia-reperfusion injury-related disorder by administering GPCR ligands” (priority 2006, dated 2014)
No end group written: not given here.

Tests used:
MrgX2 = molecular target: T1, MrgX2 (Homo sapiens, UniProt Q96LB1); test: Calcium flux in MrgX2-transfected CHO-K1 cells; type: cell-based; conditions: for calcium flux relative to the negative control: CHO-K1 co-transfected with MrgX2 and Gα16, 1 μM, about 20-90 seconds; for eliciting calcium flux compared with cortistatin-14: summary statement, MrgX2-expressing cells
T1 construct: expressed in transfected cells; host or cells: CHO-K1 (ATCC-CCL-61), transient co-transfection
T1 sequence (Q96LB1 1-330): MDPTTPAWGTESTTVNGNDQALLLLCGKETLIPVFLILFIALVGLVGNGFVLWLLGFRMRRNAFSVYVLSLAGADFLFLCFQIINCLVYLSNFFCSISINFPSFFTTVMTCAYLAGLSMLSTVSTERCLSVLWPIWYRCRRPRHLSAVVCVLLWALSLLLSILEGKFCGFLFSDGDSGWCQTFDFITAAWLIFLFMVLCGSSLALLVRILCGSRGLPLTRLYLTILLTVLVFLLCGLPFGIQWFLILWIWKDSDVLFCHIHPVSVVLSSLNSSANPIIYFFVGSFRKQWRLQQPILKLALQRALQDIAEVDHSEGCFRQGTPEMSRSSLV
Method: (§1) The assay was carried out in CHO cells were transiently transfected with the GPCR of choice, by utilizing the promiscuous Gα16 to divert signaling to the Gq pathway, thus enabling readout of GPCR activation by testing for Calcium flux as described by Liu et al 2003 (Biomol Screen 8, 39-49).
(§2) All the peptides thus obtained were tested for their ability to change calcium flux in CHO-K1 cells (ATCC-CCL-61) transiently co-transfected with an expression vector containing the GPCR of choice and expression vector containing the Gα16 encoding cDNA. Expression constructs containing cDNA clones for MrgX1, MrgX2, Mas or FPRL1 were commercially obtained in one of the following expression vectors: pcDNA3.1, pCMV6, or MO2.
(§3) Transient transfections were performed using CHO-K1 cells as host cells. Cells (12 million) were plated into T75 flasks on the day preceding transfection. Cells were transfected with the appropriate GPCR expression vector and with a vector expressing Gα16 using a lipid-based reagent, MTI, according to the manufacturer's recommendation. Cells were transfected for 5 hours, then re-plated into 96-well dishes (60,000 cells per well) and grown overnight.
(§4) On the day of the experiment, cells were loaded with Fluo-4-NW (Invitrogen) according to the manufacturer's recommendation. Plates were loaded into a FlexStation™ (Molecular Devices) plate reader and fluorescence was monitored. Seventeen seconds following initiation of reading, cells were stimulated with the indicated agonist/compound at final concentration of 1 μM. Each 96 well plate contained cells transfected with one GPCR expression vector and each of the examined peptides was tested in triplicate.
(§5) We defined a hit as a peptide which elicited a clear and distinct increase in intracellular calcium that is clearly visible and statistically significant upon examination of the calcium trace for at least two repeats. The criterion for statistical significance was a p-value lower than 0.001 in a t-test comparing the levels of calcium before and after peptide addition.
The ability of Peptides to change calcium flux was examined in CHO-K1 cells co-transfected with MrgX2 and Gα16.

FPRL1 [1] = molecular target: T2, FPRL1 (Homo sapiens, UniProt P25090); test: Calcium flux in FPRL1-transfected CHO-K1 cells; type: cell-based; set-up: expressed in transfected cells; host or cells: CHO-K1 (ATCC-CCL-61), transient co-transfection; conditions: for calcium flux relative to the negative control: CHO-K1 co-transfected with FPRL1 and Gα16, 1 μM, about 20-90 seconds
T2 sequence (P25090 1-351): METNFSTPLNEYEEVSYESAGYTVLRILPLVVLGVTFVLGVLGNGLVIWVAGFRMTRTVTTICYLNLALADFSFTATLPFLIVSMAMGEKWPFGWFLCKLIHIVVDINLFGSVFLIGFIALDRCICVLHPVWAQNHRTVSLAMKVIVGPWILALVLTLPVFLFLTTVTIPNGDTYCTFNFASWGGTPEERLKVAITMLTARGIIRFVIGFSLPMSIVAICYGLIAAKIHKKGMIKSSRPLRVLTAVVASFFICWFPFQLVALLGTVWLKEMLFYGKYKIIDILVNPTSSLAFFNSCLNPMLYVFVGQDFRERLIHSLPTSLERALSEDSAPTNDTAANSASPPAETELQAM
Method: as §1, §2, §3
as §4, with “Seventeen seconds following initiation of reading, cells were stimulated with the indicated agonist/compound at final concentration of 1 μM.” left out
as §5
The ability of Peptides to change calcium flux was examined in CHO-K1 cells co-transfected with FPRL1 and Gα16.
The P33-derived peptides (see FIG. 1): P33_V (SEQ ID NO:7), P33 (SEQ ID NO:6)-mono, P33 (SEQ ID NO:6)-dimer, P33—5 (SEQ ID NO:27), P33—8 (SEQ ID NO:14), P33—9 (SEQ ID NO:15) and P33—10 (SEQ ID NO:16) were tested for their ability to activate FPRL1 using the calcium flux assay in FPRL1-transfected CHO cells. […] The lack of activity of these peptides might be due to reduced potency; insufficient sensitivity of the experimental system, alternative interaction of the receptor, or activation of other pathways, which are not related to calcium flux. Thus, this interaction should be further characterized.

FPRL1 [2] = molecular target: T2, FPRL1; test: Competitive radioligand binding assay to FPRL1 ([125I] WKYMVm); set-up: expressed in transfected cells; host or cells: CHO cells; conditions: 0.025 nM [125I] WKYMVm; CHO transfected cells
Method: The specific binding of Peptide 58 (SEQ ID NO:1) to FPRL1 was analyzed by testing its ability to compete with 0.025 nM [^125I] WKYMVm (W peptide), a known agonist of FPRL1, for binding to FPRL1 in CHO transfected cells. CKβ8-1 (aa 46-137), another known ligand of FPRL1 was used as a positive control in this assay (Chiang et al 2006, Pharmacological Reviews 58, 463-487). Peptides were incubated with cells for 90 minutes at 25° C., in the presence of Incubation Buffer (50 mM HEPES, pH 7.4, 100 mM NaCl, 5 mM KCl, 5 mM MgCl2, 2 mM Ca Cl2, 0.5% BSA) and the amount of radioactive W peptide was measured.

Mas receptor = molecular target: T3, Mas receptor (Homo sapiens, UniProt P04201); test: Calcium flux in Mas-transfected CHO-K1 cells; type: cell-based; conditions: dose response, Mas-transfected cells
T3 construct: expressed in transfected cells; host or cells: CHO-K1 (ATCC-CCL-61), transient co-transfection
T3 sequence (P04201 1-325): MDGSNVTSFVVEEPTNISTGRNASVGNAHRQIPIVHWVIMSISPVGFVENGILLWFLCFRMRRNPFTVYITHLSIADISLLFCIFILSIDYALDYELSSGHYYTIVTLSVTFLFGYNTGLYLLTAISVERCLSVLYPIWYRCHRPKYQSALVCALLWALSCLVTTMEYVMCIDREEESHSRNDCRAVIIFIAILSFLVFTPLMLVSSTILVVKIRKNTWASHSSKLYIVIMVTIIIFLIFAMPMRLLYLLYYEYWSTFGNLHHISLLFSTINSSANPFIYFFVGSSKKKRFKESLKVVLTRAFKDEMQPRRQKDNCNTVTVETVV
Method: as §1, §2, §3, §4, §5
Based on dose response experiments, EC50 best fit values were calculated by non-linear regression of sigmoidal dose-response curves, using Prism version 4 (GraphPad Software Inc., San Diego, Calif.). The formulae for the sigmoidal dose-response curves was defined as Y=Bottom+(Top−Bottom)/(1+10^(Log EC50−X)*HillSlope))
The ability of Peptides to change calcium flux was examined in CHO-K1 cells co-transfected with Mas receptor and Gα16.
The P33 monomer and dimer, as well as other P33 derivative peptides were compared for their ability to induce calcium flux in the Mas-transfected cells at 0.1, 1, 10, 100, 1000 and 10000 nM.

[3] = tested on: cardiac remodeling induced by Isoproterenol in Wistar rats; test: Cardiac remodeling induced by Isoproterenol; type: in vivo, rat
Method: The effect of the peptides […] (SEQ ID NO:10), […]-dimer ([…]) (SEQ ID NO9), P33_V (SEQ ID NO:7), P33-dimer (P33_D) (SEQ ID NO:6) on cardiac remodeling, was tested by determining their effect on heart hypertrophy and fibrosis (deposition of collagen I, III, and fibronectin) induced by Isoproterenol. Losartan (an antagonist of the known angiotensin II receptor, AT1, Kucharewicz et al., 2002; Hypertension, (40): 774-779) was used as positive control. The negative control group was treated with vehicle only. Additional control groups included rats not-treated with isoproterenol which were treated with the peptides, with Losartan or with the vehicle. The analysis included determination of the left ventricle mass and morphometry. In addition, immunofuorescence analysis of fibronectin and collagens I and III deposition was performed by confocal microcopy. Animals Acclimatization: Male Wistar rats Age: 13-14 weeks (250 to 300 g) were maintained in the animal facilities for 7 days before the beginning of the experiment. The animals were exposed to a brightness circle of light-dark cycle of 12hs (day-06:00 to 18:00; night-18:00 to 06:00), and the room temperature was kept at 23±2° C. Heart failure was induced by daily injections of isoproterenol (2 mg/kg/day, subcutaneously) during 7 days. […] Immunofluorescence-labeling and quantitative confocal microscopy was used to investigate the distribution and quantity of collagen types I, III and fibronectin present in the left ventricles. […] Optimal confocal settings (aperture, gain and laser power) were determined at the beginning of each imaging session and then held constant during the analysis of all the samples. […] For quantitative analysis of collagens I, III, and fibronectin, the ImageTool 2.0 image analysis program was used (see “[…] University of Texas Health Science Center at San Antonio website) to measure the fluorescence intensity in images randomly selected. […]

calcium flux relative to the negative control (MrgX2)	eliciting calcium flux compared with cortistatin-14 (MrgX2)	calcium flux relative to the negative control (FPRL1 [1])	Molecule	also measured
increased calcium flux	superior to cortistatin-14	increased calcium flux	AAQATGPLQDNELPGLDERPPRAHAQHFHKHQLWPSPFRALKPRP (listed as Homo sapiens) [Peptide P94]	
		increased calcium flux	TIPMFVPESTSKLQKFTSWFM-NH2 [Peptide P58]	Ki (FPRL1 [2]): 54.1 nM; calcium flux (P58 family) (FPRL1 [1]; dose response, FPRL1 transfected CHO cells): elicited calcium flux
			FLGYCIYLNRKRRGDPAFKRRLRD (also: dimer via cysteine; listed as Homo sapiens) [Peptide P61_dimer]	ability to induce calcium flux, relative potency (P61 family) (Mas receptor): more potent than the monomeric P61 peptides; heart hypertrophy as measured by deposition of Fibronectin, Collagen I and Collagen III ([3]; 1 ug/hour/Kg by osmotic minipump, partial data, 3 out of 6 animals of each group): effective in reducing the heart hypertrophy; effect as measured by Fibronectin deposition ([3]; partial data, 3 out of 6 animals, FIG. 40): not significant
			CCCCc1nc(Cl)c(CO)n1Cc1ccc(-c2ccccc2-c2nn[nH]n2)cc1 [Losartan, reference compound]	left ventricle to body mass ratio (LV/BW) ([3]; isoproterenol 2 mg/kg/day s.c. 7 days, peptides 1 ug/hour/Kg by osmotic minipump, Losartan 1 mg/kg once a day by gavage): did not have an effect
increased calcium flux	superior to cortistatin-14		AHAQHFHKHQLWPSPFRALKPRP (listed as Homo sapiens) [Peptide 63]	
